For 1 variant, percent of parent results are on record in article PMC10281804 (2023).

First the molecules themselves.
B1: mCherry-KANK1 wild type (human full-length KANK1) [human] / GFP-talin1-cBAK [mouse] (parent complex)
chain 1: MAHTTKVNGSASGKAGDILSGDQDKEQKDPYFVETPYGYQLDLDFLKYVDDIQKGNTIKRLNIQKRRKPSVPCPEPRTTSGQQGIWTSTESLSSSNSDDNKQCPNFLIARSQVTSTPISKPPPPLETSLPFLTIPENRQLPPPSPQLPKHNLHVTKTLMETRRRLEQERATMQMTPGEFRRPRLASFGGMGTTSSLPSFVGSGNHNPAKHQLQNGYQGNGDYGSYAPAAPTTSSMGSSIRHSPLSSGISTPVTNVSPMHLQHIREQMAIALKRLKELEEQVRTIPVLQVKISVLQEEKRQLVSQLKNQRAASQINVCGVRKRSYSAGNASQLEQLSRARRSGGELYIDYEEEEMETVEQSTQRIKEFRQLTADMQALEQKIQDSSCEASSELRENGECRSVAVGAEENMNDIVVYHRGSRSCKDAAVGTLVEMRNCGVSVTEAMLGVMTEADKEIELQQQTIESLKEKIYRLEVQLRETTHDREMTKLKQELQAAGSRKKVDKATMAQPLVFSKVVEAVVQTRDQMVGSHMDLVDTCVGTSVETNSVGISCQPECKNKVVGPELPMNWWIVKERVEMHDRCAGRSVEMCDKSVSVEVSVCETGSNTEESVNDLTLLKTNLNLKEVRSIGCGDCSVDVTVCSPKECASRGVNTEAVSQVEAAVMAVPRTADQDTSTDLEQVHQFTNTETATLIESCTNTCLSTLDKQTSTQTVETRTVAVGEGRVKDINSSTKTRSIGVGTLLSGHSGFDRPSAVKTKESGVGQININDNYLVGLKMRTIACGPPQLTVGLTASRRSVGVGDDPVGESLENPQPQAPLGMMTGLDHYIERIQKLLAEQQTLLAENYSELAEAFGEPHSQMGSLNSQLISTLSSINSVMKSASTEELRNPDFQKTSLGKITGNYLGYTCKCGGLQSGSPLSSQTSQPEQEVGTSEGKPISSLDAFPTQEGTLSPVNLTDDQIAAGLYACTNNESTLKSIMKKKDGNKDSNGAKKNLQFVGINGGYETTSSDDSSSDESSSSESDDECDVIEYPLEEEEEEEDEDTRGMAEGHHAVNIEGLKSARVEDEMQVQECEPEKVEIRERYELSEKMLSACNLLKNTINDPKALTSKDMRFCLNTLQHEWFRVSSQKSAIPAMVGDYIAAFEAISPDVLRYVINLADGNGNTALHYSVSHSNFEIVKLLLDADVCNVDHQNKAGYTPIMLAALAAVEAEKDMRIVEELFGCGDVNAKASQAGQTALMLAVSHGRIDMVKGLLACGADVNIQDDEGSTALMCASEHGHVEIVKLLLAQPGCNGHLEDNDGSTALSIALEAGHKDIAVLLYAHVNFAKAQSPGTPRLGRKTSPGPTHRGSFD
chain 2: MVALSLKISIGNVVKTMQFEPSTMVYDACRMIRERIPEALAGPPNDFGLFLSDDDPKKGIWLEAGKALDYYMLRNGDTMEYRKKQRPLKIRMLDGTVKTIMVDDSKTVTDMLMTICARIGITNHDEYSLVRELMEEKKDEGTGTLRKDKTLLRDEKKMEKLKQKLHTDDELNWLDHGRTLREQGVEEHETLLLRRKFFYSDQNVDSRDPVQLNLLYVQARDDILNGSHPVSFDKACEFAGFQCQIQFGPHNEQKHKAGFLDLKDFLPKEYVKQKGERKIFQAHKNCGQMSEIEAKVRYVKLARSLKTYGVSFFLVKEKMKGKNKLVPRLLGITKECVMRVDEKTKEVIQEWSLTNIKRWAASPKSFTLDFGDYQDGYYSVQTTEGEQIAQLIAGYIDIILKKKKSKDHFGLEGDEESTMLEDSVSPKKSTVLQQQYNRVGKVEHGSVALPAIMRSGASGPENFQVGSMPPAQQQITSGQMHRGHMPPLTSAQQALTGTINSSMQAVQAAQATLDDFETLPPLGQDAASKAWRKNKMDESKHEIHSQVDAITAGTASVVNLTAGDPAETDYTAVGCAVTTISSNLTEMSRGVKLLAALLEDEGGNGRPLLQAAKGLAGAVSELLRSAQPASAEPRQNLLQAAGNVGQASGELLQQIGESDTDPHFQDVLMQLAKAVASAAAALVLKAKSVAQRTEDSGLQTQVIAAATQCALSTSQLVACTKVVAPTISSPVCQEQLVEAGRLVAKAVEGCVSASQAATEDGQLLRGVGAAATAVTQALNELLQHVKAHATGAGPAGRYDQATDTILTVTENIFSSMGDAGEMVRQARILAQATSDLVNAIKADAEGESDLENSRKLLSAAKILADATAKMVEAAKGAAAHPDSEEQQQRLREAAEGLRMATNAAAQNAIKKKLVQRLEHAAKQAAASATQTIAAAQHAASAPKASAGPQPLLVQSCKAVAEQIPLLVQGVRGSQAQPDSPSAQLALIAASQSFLQPGGKMVAAAKASVPTIQDQASAMQLSQCAKNLGTALAELRTAAQKAQEACGPLEMDSALSVVQNLEKDLQEIKAAARDGKLKPLPGETMEKCTQDLGNSTKAVSSAIAKLLGEIAQGNENYAGIAARDVAGGLRSLAQAARGVAALTSDPAVQAIVLDTASDVLDKASSLIEEAKKASGHPGDPESQQRLAQVAKAVTQALNRCVSCLPGQRDVDNALRAVGDASKRLLSDSLPPSTGTFQEAQSRLNEAAAGLNQAATELVQASRGTPQDLARASGRFGQDFSTFLEAGVEMAGQAPSQEDRAQVVSNLKGISMSSSKLLLAAKALSTDPASPNLKSQLAAAARAVTDSINQLITMCTQQAPGQKECDNALRQLETVRELLENPVQPINDMSYFGCLDSVMENSKVLGEAMTGISQNAKNGNLPEFGDAIATASKALCGFTEAAAQAAYLVGVSDPNSQAGQQGLVEPTQFARANQAIQMACQSLGEPGCTQAQVLSAATIVAKHTSALCNSCRLASARTANPTAKRQFVQSAKEVANSTANLVKTIKALDGDFTEENRAQCRAATAPLLEAVDNLSAFASNPEFSSVPAQISPEGRAAMEPIVISAKTMLESAGGLIQTARALAVNPRDPPRWSVLAGHSRTVSDSIKKLITSMRDKAPGQLECETAIAALNSCLRDLDQASLAAVSQQLAPREGISQEALHTQMLTAVQEISHLIEPLASAARAEASQLGHKVSQMAQYFEPLTLAAVGAASKTLSHPQQMALLDQTKTLAESALQLLYTAKEAGGNPKQAAHTQEALEEAVQMMTEAVEDLTTTLNEAASAAGVVGGMVDSITQAINQLDEGPMGDPEGSFVDYQTTMVRTAKAIAVTVQEMVTKSNTSPEELGPLANQLTSDYGRLASQAKPAAVAAENEEIGAHIKHRVQELGHGCSALVTKAGALQCSPSDVYTKKELIECARRVSEKVSHVLAALQAGNRGTQACITAASAVSGIIADLDTTIMFATAGTLNREGAETFADHREGILKTAKVLVEDTKVLVQNAAGSQEKLAQAAQSSVATITRLADVVKLGAASLGAEDPETQVVLINAVKDVAKALGDLISATKAAAGKVGDDPAVWQLKNSAKVMVTNVTSLLKTVKAVEDEATKGTRALEATTEHIRQELAVFCSPEPPAKTSTPEDFIRMTKGITMATAKAVAAGNSCRQEDVIATANLSRRAIADMLRACKEAAFHPEVAPDVRLRALHYGRECANGYLELLDHVLLTLQKPNPDLKQQLTGHSKRVAGSVTELIQAAEAMKGTEWVDPEDPTVIAENELLGAAAAIEAAAKKLEQLKPRAKPKEADESLNFEEQILEAAKSIAAATSALVKAASAAQRELVAQGKVGAIPANALDDGQWSQGLISAARMVAAATNNLCEAANAAVQGHASQEKLISSAKQVAASTAQLLVACKVKADQDSEAMKRLQAAGNAVKRASDNLVKAAQKAAAFEDQENETVVVKEKMVGGIAQIIAAQEEMLRKERELEEARKKLAQIRQQQYKFLPSELRDEH

Variants of B1 are the subject of the test. Description: mitochondria pulldown (MTS assay), Western blot quantification; HEK293T cells; triplicate experiments; read off a plot.
With chain 1 V49E, the percent of parent was about 2%.
